Molecular target: the molecule itself
Assay: FRET or BRET

B1: Escherichia coli transthyretin-related protein (EcTRP), single Cys variant Asn94Cys with N-terminal His5-tag, fluorophore-labelled (enzyme, UniProt P76341 24-137, looked up)
chain: AQQNILSVHILNQQTGKPAADVTVTLEKKADNGWLQLNTAKTDKDGRIKALWPEQTATTGDYRVVFKTGDYFKKQNLESFFPEIPVEFHINKVCEHYHVPLLLSQYGYSTYRGS
modifications: Cys94 labelled with DyLight 550 maleimide (FRET donor) or Alexa 647 maleimide (FRET acceptor)
B1 was tested, and the “half-life of subunit exchange” value was greater than 30 h.
